Reference: publication PMC7263589, “Integration of phage and yeast display platforms: A reliable and cost effective approach for binning of peptides as displayed on-phage” (PLoS ONE, 2020)
Positions count from the first letter of the chain named. In names and notes the source's numbering stands. Bridge positions count the residues as written; N and C are the ends. Peptide text beside a SMILES is read from it.

Columns and labels:
IL-23 = target: T1, IL-23 (Homo sapiens, UniProt P29460+Q9NPF7); experiment: SPR direct binding to captured IL-23-AVI (Biacore T200); conditions: for kon: 50 μl/min, 10 mM HEPES pH 7.5, 150 mM NaCl, 0.005% P20, 3% DMSO, multi-cycle (single cycle kinetics for 23–652 and IL-23R), read-out: ka
T1 construct: made in house
T1 sequence (Q9NPF7 20-189): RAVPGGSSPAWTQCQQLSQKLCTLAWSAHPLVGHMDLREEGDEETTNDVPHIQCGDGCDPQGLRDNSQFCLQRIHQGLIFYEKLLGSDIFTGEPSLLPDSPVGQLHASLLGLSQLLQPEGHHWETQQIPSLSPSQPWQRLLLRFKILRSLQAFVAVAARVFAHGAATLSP
T1 sequence (P29460 23-328): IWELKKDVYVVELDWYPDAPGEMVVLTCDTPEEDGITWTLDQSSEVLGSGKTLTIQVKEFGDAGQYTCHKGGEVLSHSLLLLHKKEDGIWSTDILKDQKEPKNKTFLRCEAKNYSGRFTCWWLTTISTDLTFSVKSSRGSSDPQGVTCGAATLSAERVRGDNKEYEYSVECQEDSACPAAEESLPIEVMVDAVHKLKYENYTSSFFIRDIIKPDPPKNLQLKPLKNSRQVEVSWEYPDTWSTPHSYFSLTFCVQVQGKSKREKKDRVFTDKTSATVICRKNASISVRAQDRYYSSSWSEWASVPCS
Method: SPR (Biacore T200, GE Healthcare) was used to determine binding constants of the peptides against IL-23 and their competitiveness to IL-23R. All SPR experiments were performed at 25°C with flow rate of 50 μl/min. Assay buffer used in direct binding experiment was 10 mM HEPES pH 7.5, 150 mM NaCl, 0.005% P20, and 3% DMSO. Assay buffer used in competition experiment was 10 mM HEPES pH 7.5, 150 mM NaCl, 0.005% P20, and 1% BSA. All peptides were reconstituted first in DMSO as 10 mM stocks and then diluted into assay buffer. The proteins used in direct binding and competition SPR are described in S1 Table in S1 File. For direct binding of peptides against IL-23, 2000–9000 RU of IL-23-AVI was captured to streptavidin sensor chips (GE Healthcare, Series S Sensor Chip SA, BR-1005-31). Dilution series with 3-fold increment were prepared for each peptide. Initially, all peptides were tested up to 30 μM. Concentration range for some were then lowered accordingly based on affinity or nuisance behavior at high concentrations. SPR “multi-cycle” type was used for peptides 23–644, 23–437, 23–441, 23–446, and 23–447. Each cycle consisted of 30s of analyte injection and then 60s of buffer flow to monitor dissociation. “Single cycle kinetics” (SCK) type was used for 23–652 due to their long dissociation half-lives. Each SCK cycle consisted of five 60s injections of sample in increasing concentration with a final 600s of dissociation. To study IL-23 and IL-23R interaction, 200–1000 RU of IL-23-AVI and IL-23R-Fc-AVI were captured to streptavidin sensor chip. Dilution series with 3-fold increment of IL-23R-FLAG-HIS and IL-23-HIS were run in SCK cycle type as described above except the final dissociation time were 60-300s. Sensorgrams from the entire titration series for each sample were fitted globally to extract binding kinetics and affinity using Biacore T200 Evaluation Software 2.0 (GE Healthcare) according to a 1:1 binding model. To identify IL-23 binders that can block receptor binding, a competition SPR was established. In each SPR cycle, fresh IL-23R was capture (<1000 RU) by injecting 10 μg/ml of IL-23R-Fc-AVI to a Protein-A flow cell at 10 μl/min flow rate for 30s. Analyte consisted of a mixture of 20 nM of IL-23 protein and a single concentration of peptide was then injected for 30s at 50 μl/min to observe IL-23 binding. Finally, the Protein-A surface was regenerated by 10 mM Glycine pH 1.5 for 30s at 30 μl/min. IL-23 at 20 nM without peptide, “IL-23 only”, was used as control to quantify IL-23 binding without blockage; while “cold” IL-23R was used as a positive control for blockage.

[1] = target: FGL-containing peptide phage (FGL Phage); experiment: flow cytometry on yeast-displayed IL-23, phage detected with anti-M13-AF647; conditions: n = 2; parent: est. 24; read off a plot
IL-23-AVI [2] = target: T2, IL-23-AVI (human, UniProt Q9NPF7 20-189; P29460 23-328); experiment: SPR; Biacore T200, 25°C, 50 μl/min; 2000–9000 RU of IL-23-AVI captured to streptavidin chip, peptides as analyte (3-fold series, up to 30 μM); 10 mM HEPES pH 7.5, 150 mM NaCl, 0.005% P20, 3% DMSO; multi-cycle, single cycle kinetics for 23–652; 1:1 model; n = 1; conditions: both partners purified
T2 construct: IL-23 p19 subunit, human; IL-12/IL-23 p40 subunit, human; Captured on streptavidin chips and beads, so biotinylation of the Avi tag is implied; also called Avi-tagged IL-23; recombinant IL-23
T2 sequence (looked up) 1: T1 sequence (Q9NPF7 20-189)
T2 sequence (looked up) 2: T1 sequence (P29460 23-328)

IL-23-AVI [3] = target: T2, IL-23-AVI; experiment: AlphaScreen or HTRF; TR-FRET; compounds pre-incubated with IL-23R-FLAG 1 h, then IL-23-AVI; Europium-streptavidin and anti-FLAG-allophycocyanin; 25 mM HEPES, 150 mM NaCl, 0.02% Tween 20, 0.1% BSA, pH 7.4, 1% DMSO; n = 1; conditions: both partners purified
IL-23-AVI [4] = target: T2, IL-23-AVI; experiment: AlphaScreen or HTRF; AlphaLISA; IL-23-AVI (1.5 nM) pre-incubated with peptide 30 min, then FLAG-tagged IL-23R (3 nM); streptavidin donor and anti-FLAG acceptor beads; 25 mM HEPES pH 7.4, 150 mM NaCl, 0.02% Tween 20, 0.1% BSA; room temperature; n = 1; conditions: both partners purified
[5] = target: T3, Fluorescently labeled IL-23R, Q5VWK5; experiment: flow cytometry on yeast-displayed IL-23; conditions: chain shown with the change; n = 1; parent: est. 1.05; read off a plot
T3 chain: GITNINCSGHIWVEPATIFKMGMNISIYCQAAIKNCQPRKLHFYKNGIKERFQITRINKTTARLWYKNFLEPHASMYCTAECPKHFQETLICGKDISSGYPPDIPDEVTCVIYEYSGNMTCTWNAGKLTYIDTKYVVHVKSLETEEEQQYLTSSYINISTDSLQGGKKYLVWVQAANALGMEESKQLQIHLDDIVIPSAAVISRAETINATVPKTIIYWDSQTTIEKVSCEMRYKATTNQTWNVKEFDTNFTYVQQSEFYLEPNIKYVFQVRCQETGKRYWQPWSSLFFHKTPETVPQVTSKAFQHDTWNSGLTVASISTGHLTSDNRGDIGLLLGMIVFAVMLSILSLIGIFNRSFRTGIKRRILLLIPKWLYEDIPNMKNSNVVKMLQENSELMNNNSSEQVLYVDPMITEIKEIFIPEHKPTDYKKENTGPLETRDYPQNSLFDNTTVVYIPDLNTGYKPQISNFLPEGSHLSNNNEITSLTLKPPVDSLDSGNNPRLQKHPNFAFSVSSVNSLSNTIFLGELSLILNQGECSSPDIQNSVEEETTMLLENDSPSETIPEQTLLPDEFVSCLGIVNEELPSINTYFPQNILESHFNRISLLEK

[6] = IL-23-AVI captured on streptavidin chip, 25°C, 1:1 binding model, n = 1, 23–447 an estimate

Molecule: CC(C)C[C@@H]1NC(=O)CNC(=O)[C@H](Cc2ccccc2)NC(=O)[C@H](Cc2c[nH]c3ccccc23)NC(=O)[C@@H](NC(=O)[C@@H]2CCCN2C(=O)[C@H](CC(=O)O)NC(=O)[C@@H]2CCCN2C(=O)[C@@H](NC(=O)[C@@H](N)Cc2c[nH]cn2)C(C)C)CSSC[C@@H](C(=O)N[C@@H](CC(=O)O)C(=O)N[C@H](C(=O)N[C@@H](CC(C)C)C(=O)N[C@@H](CC(N)=O)C(=O)N[C@@H](CO)C(=O)O)C(C)C)NC(=O)[C@H](CC(C)C)NC1=O [23–644] (H-HVPDPCWFGLLCDVLNS-OH; disulfide 6-12)
- kon (IL-23; [6]): 49300 M⁻¹ s⁻¹

Molecule: CC(C)C[C@H](NC(=O)CN)C(=O)N[C@@H](CCCNC(=N)N)C(=O)N[C@@H](CCC(=O)O)C(=O)N[C@@H](CCCNC(=N)N)C(=O)N[C@H]1CSSC[C@@H](C(=O)N[C@@H](CCC(N)=O)C(=O)N[C@@H](CC(N)=O)C(=O)N[C@@H](Cc2c[nH]c3ccccc23)C(=O)N[C@@H](Cc2ccc(O)cc2)C(=O)N[C@@H](Cc2c[nH]c3ccccc23)C(=O)O)NC(=O)[C@H](Cc2ccccc2)NC(=O)[C@H](CCC(=O)O)NC(=O)[C@H](Cc2c[nH]cn2)NC(=O)CNC(=O)[C@H](Cc2ccc(O)cc2)NC(=O)[C@H](CC(N)=O)NC(=O)[C@H](CCCNC(=N)N)NC(=O)[C@H](C(C)C)NC1=O [23–446] (H-GLRERCVRNYGHEFCQNWYW-OH; disulfide 6-15)
- kon (IL-23; [6]): 3.88e+06 M⁻¹ s⁻¹

Molecule: wild-type IL-23 displayed on yeast (from UniProt Q9NPF7;P29460) L24A
- response [1]: 17

Molecule: CSCC[C@H](NC(=O)[C@H](CCC(N)=O)NC(=O)[C@@H]1CSSC[C@H](NC(=O)[C@H](Cc2ccccc2)NC(=O)[C@H](CO)NC(=O)[C@H](CCCCN)NC(=O)[C@@H](NC(=O)[C@H](CC(C)C)NC(=O)[C@@H](NC(=O)[C@@H](N)CC(=O)O)[C@@H](C)O)[C@@H](C)O)C(=O)N[C@@H](Cc2ccc(O)cc2)C(=O)N[C@@H](Cc2ccccc2)C(=O)NCC(=O)N[C@@H]([C@@H](C)O)C(=O)N[C@@H](Cc2c[nH]c3ccccc23)C(=O)N1)C(=O)N[C@@H](Cc1ccc(O)cc1)C(=O)NCC(=O)N[C@@H](CO)C(=O)N[C@H](C(=O)O)[C@@H](C)O [23–652] (H-DTLTKSFCYFGTWCQMYGST-OH; disulfide 8-14)
- kon (IL-23; [6]): 36600 M⁻¹ s⁻¹

Molecule: wild-type IL-23 displayed on yeast (from UniProt Q9NPF7;P29460) K20A
- response [1]: 22

Molecule: wild-type IL-23 displayed on yeast (from UniProt Q9NPF7;P29460) W26A
- response [1]: 1.1

Molecule: CC[C@H](C)[C@H](NC(=O)[C@H](CO)NC(=O)[C@H](Cc1c[nH]c2ccccc12)NC(=O)[C@H](CC(C)C)NC(=O)[C@H](CCSC)NC(=O)[C@@H]1CSSC[C@H](NC(=O)[C@H](CC(C)C)NC(=O)[C@@H](NC(=O)[C@H](CCC(N)=O)NC(=O)[C@H](CC(C)C)NC(=O)[C@@H](N)CC(C)C)[C@@H](C)O)C(=O)N[C@@H](CCC(N)=O)C(=O)N[C@@H](CCSC)C(=O)N[C@@H]([C@@H](C)O)C(=O)N[C@@H](CO)C(=O)N[C@@H](CC(=O)O)C(=O)N[C@@H](C)C(=O)N[C@@H](CCCNC(=N)N)C(=O)N[C@@H]([C@@H](C)O)C(=O)N1)C(=O)O [23–443] (H-LLQTLCQMTSDARTCMLWSI-OH; disulfide 6-15 (inferred); N-terminus and C-terminus assumed)
- Kd (IL-23; IL-23-AVI captured on streptavidin chip, 25°C, 1:1 binding model, n = 1, 23–447 an estimate, NB: not binding as free peptide): > 30 µM
- binding to IL-23 as a free peptide (IL-23; chemically synthesized peptide): did not retain its binding

Molecule: wild-type IL-23 displayed on yeast (from UniProt Q9NPF7;P29460) W137A
- response [1]: 23

B1: peptide 23–652 (free, chemically synthesized) (peptide)
peptide: DTLTKSFCYFGTWCQMYGST
notes: selected from a peptide phage library against IL-23; Two cysteines; also called FGLT-containing peptide; FGL-containing peptide; source: synthetic peptide (CPC Scientific)
- Kd (IL-23-AVI [2]): 71.8 nM
- koff (IL-23-AVI [2]): 0.00263 s⁻¹
- kon (IL-23-AVI [2]): 36600 M⁻¹ s⁻¹

B2: peptide 23–446 (free, chemically synthesized) (peptide)
peptide: GLRERCVRNYGHEFCQNWYW
notes: selected from a peptide phage library against IL-23; Two cysteines; source: synthetic peptide (CPC Scientific)
- IC50 (IL-23-AVI [3]): 590 nM
- IC50 (IL-23-AVI [4]): 240 nM
- Kd (IL-23-AVI [2]): 22.3 nM
- koff (IL-23-AVI [2]): 0.0863 s⁻¹
- kon (IL-23-AVI [2]): 3.88e+06 M⁻¹ s⁻¹

B3: wild-type IL-23 displayed on yeast, Q9NPF7;P29460 K145A (protein)
chain 1: T1 sequence (Q9NPF7 20-189) with K145A
chain 2: T1 sequence (P29460 23-328)
- ratio to parent [5]: 0.18

B4: peptide 23–644 (free, chemically synthesized) (peptide)
peptide: HVPDPCWFGLLCDVLNS
notes: selected from a peptide phage library against IL-23; Two cysteines; also called FGL-containing peptide; source: synthetic peptide (CPC Scientific)
- Kd (IL-23-AVI [2]): 2620 nM
- koff (IL-23-AVI [2]): 0.129 s⁻¹
- kon (IL-23-AVI [2]): 49300 M⁻¹ s⁻¹
